Experiment [1] concerns the target T1, human CEACAM5-his (ACRO CE5-H5226) (human, UniProt P06731 35-685).
T1 construct: Bought protein; not shown: His tag
T1 sequence (looked up): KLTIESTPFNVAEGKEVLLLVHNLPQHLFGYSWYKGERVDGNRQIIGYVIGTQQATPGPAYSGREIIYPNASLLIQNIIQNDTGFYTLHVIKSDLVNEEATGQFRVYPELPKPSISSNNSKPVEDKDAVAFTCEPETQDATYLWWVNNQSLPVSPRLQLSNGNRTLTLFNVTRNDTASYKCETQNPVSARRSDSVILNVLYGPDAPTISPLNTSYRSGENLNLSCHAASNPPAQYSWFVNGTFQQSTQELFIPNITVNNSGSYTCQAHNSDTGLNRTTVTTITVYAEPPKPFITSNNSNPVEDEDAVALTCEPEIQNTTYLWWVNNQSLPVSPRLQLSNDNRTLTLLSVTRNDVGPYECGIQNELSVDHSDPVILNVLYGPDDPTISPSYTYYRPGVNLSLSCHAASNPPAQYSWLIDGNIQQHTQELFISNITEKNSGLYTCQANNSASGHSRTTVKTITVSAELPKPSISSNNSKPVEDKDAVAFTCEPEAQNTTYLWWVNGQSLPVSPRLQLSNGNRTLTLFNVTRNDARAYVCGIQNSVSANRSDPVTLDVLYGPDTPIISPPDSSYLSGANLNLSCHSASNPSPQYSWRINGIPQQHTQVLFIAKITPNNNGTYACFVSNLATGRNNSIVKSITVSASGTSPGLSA
The experiment is described as follows: ELISA on coated human CEACAM5, OD450. Here is the method:
(§1) The binding activity of the antibodies to human CEACAM5, human CEACAM6, and human CEACAM6 (AB) proteins was detected by ELISA. The plate coated with proteins was incubated at 4° C. overnight, and the 96-well ELISA plate blocked with 2% PBS-BSA was added with the antibody to be detected and incubated at 37° C. for 1 h. After washing 3 times with PBS containing 0.05% Tween, the absorbance value of each well was read at wavelength 450 nm with the gradient-diluted mouse-derived candidate antibody as the primary antibody and anti-mouse-IgG-FC-HRP as the secondary antibody, and the absorbance value of each well was read at wavelength 450 nm after the TMB color development.

For experiment [2], the target named is T2, Human-CEACAM6 (AB)-His (human, UniProt P40199 145-314).
T2 construct: Made in house, purified on a nickel column
The experiment is described as follows: ELISA on coated human CEACAM6 (AB), OD450. Here is the method:
as §1
(In an ELISA, binding on a coated surface is turned into a signal by an enzyme label.)

Experiment [3] deals with T3, CEACAM5 on the surface of the tumor cells (HPAFII cells) (UniProt P06731 35-685).
T3 construct: whole, on cells
T3 sequence (looked up): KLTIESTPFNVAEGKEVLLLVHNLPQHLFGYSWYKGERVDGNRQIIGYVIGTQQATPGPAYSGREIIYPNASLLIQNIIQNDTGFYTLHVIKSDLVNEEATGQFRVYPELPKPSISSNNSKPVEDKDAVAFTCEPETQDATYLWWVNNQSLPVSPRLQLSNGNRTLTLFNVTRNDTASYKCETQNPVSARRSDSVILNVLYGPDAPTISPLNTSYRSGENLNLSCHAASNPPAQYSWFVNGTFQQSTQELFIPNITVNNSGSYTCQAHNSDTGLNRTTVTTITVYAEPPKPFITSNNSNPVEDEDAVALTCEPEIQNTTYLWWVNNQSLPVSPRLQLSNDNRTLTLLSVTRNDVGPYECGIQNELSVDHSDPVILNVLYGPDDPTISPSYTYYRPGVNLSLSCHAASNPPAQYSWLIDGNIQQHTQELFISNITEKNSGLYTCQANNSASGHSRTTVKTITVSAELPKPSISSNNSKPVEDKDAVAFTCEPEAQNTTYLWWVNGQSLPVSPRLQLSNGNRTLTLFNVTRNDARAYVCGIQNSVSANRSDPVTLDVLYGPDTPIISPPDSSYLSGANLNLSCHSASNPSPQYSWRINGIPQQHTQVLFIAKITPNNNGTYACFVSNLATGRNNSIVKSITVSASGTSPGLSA
Briefly: flow cytometry on HPAFII cells (Mean-FITC); the cells carry CEACAM5 and CEACAM6, signal not divided between the two. Here is the method:
(§2) The antibody to be tested was taken as the initial concentration of 200 nM and diluted 5-fold with 6 gradients. The HPAFII cells (From USTC […] FOR ADVANCED STUDIES) in the incubator were taken out, and the cell suspension was transferred to a 15 mL centrifuge tube, centrifuged, and counted by resuspension in PBS. A blank control group (Blank), a negative control group (NC), an experimental group, a positive control group and the irrelevant antibody group were kept. […] The cell suspension was spread in a 96-well plate according to about 3×10⁵ cells/well. Centrifugation (1000 rpm, 5 min) was performed, followed by washing with PBS, re-centrifugation, and repeated twice to remove media residues. The supernatant was discarded, 100 μL of primary antibody solution and irrelevant antibody solution were added to the experimental group and irrelevant antibody group, respectively, and the cells were resuspended and incubated at room temperature for 1 h. The blank group, and the negative control group were incubated with an equal amount of PBS.
(§3) After 1 h, PBS was added to wash twice. After the supernatant was discarded, 100 μL of fluorescent secondary antibody dilution (Mouse-derived secondary antibody from Abcam ab6785) was added to each sample group, except for the blank group which was added with 100 μL of PBS. After incubation at room temperature and protected from light for 0.5 h, centrifugation was performed and PBS added to wash the samples twice. After the supernatant was discarded, 120 μL of PBS was added to resuspend and sequentially flow cytometry was performed to detect the mean fluorescence intensity. The concentration of the antibody was logarithmically taken as the horizontal coordinate, and the Sigmoidaldose-response (VariableSlope) method (GraphPadPrism Software, GraphPadSoftware, San Diego, California) was chosen to perform a nonlinear regression to obtain the binding activity curves of the antibody on HPAFII cells.
In general terms: A flow cytometer gives signals particle by particle.

Experiment [4] deals with T4, CEACAM6 on the surface of the tumor cells (HPAFII cells) (UniProt P40199 35-320).
T4 construct: whole, on cells
T4 sequence (looked up): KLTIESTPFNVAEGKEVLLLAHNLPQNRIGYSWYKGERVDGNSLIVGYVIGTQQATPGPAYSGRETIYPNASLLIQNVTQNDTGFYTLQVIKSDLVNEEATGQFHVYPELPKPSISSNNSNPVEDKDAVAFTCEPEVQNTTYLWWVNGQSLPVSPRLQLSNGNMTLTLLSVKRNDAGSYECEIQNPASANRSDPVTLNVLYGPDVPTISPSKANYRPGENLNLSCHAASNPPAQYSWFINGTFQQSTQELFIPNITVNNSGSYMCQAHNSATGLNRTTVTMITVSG
The description is as above. Here is the method: as §2, §3

Experiment [5] concerns the target T2, Human-CEACAM6 (AB)-His. The experiment is described as follows: SPR (Biacore), antibody captured on CM5 chip, antigen as analyte, 1:1 model. Here is the method: (§4) The CM5 sensor chip was activated at a flow rate of 10 μL/min for 420 seconds. The channel was then injected with 30 μg/mL of anti-rat Fc IgG in 10 mM NaAc (pH 4.5) at a flow rate of 10 μL/min. The chip was inactivated with 1 M ethanolamine-hydrochloric acid (GE) for 420 seconds at a flow rate of 10 μL/min.
(§5) Candidate antibodies in running buffer 1×HBS-EP+ (10 mM HEPES, 150 mM NaCl, 3 mM EDTA, 0.05% Tween 20, pH 7.4) were captured onto Fc2 with anti-rat Fc IgG at a flow rate of 10 μL/min. The 10 nM human CEACAM5-his protein or CEACAM-6-his or CEACAM6 (AB)-his protein and running buffer were sequentially injected into Fc1-Fc2 at a flow rate of […], bound for 180 seconds, and then dissociated for 3600 seconds. 10 mM glycine (pH 1.5) was injected as regeneration buffer after each dissociation.
(§6) Result plots for the reference channel Fc1 and the buffer channel were subtracted from the test result plots. The experimental data fit the 1:1 binding model. The molecular weight of 110 KDa was used to calculate the molar concentration of CEACAM5 protein, 55 KDa for human CEACAM6-his, and 55 KDa for human CEACAM6 (AB)-his.
A general note: SPR reads the build-up and loss of mass on a sensor chip optically.

Experiment [6] addresses T1, human CEACAM5-his (ACRO CE5-H5226). The description is as above. Here is the method:
as §4, §5, §6

In experiment [7] the target is T5, human CEACAM6-his (ACRO CE6-H5223) (human, UniProt P40199 35-320).
T5 construct: Bought protein; not shown: His tag
T5 sequence (looked up): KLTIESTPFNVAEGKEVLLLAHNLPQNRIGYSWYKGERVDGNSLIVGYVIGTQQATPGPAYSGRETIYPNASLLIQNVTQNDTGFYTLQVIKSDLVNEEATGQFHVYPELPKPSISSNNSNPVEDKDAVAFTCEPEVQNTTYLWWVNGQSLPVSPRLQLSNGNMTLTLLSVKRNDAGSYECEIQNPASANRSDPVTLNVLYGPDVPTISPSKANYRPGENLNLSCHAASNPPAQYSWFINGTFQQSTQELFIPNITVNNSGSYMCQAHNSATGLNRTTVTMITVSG
The description is as above. Here is the method:
as §4, §5, §6

The EC50 (read off the curve) is the concentration needed to bring the measured effect to its halfway point. Low values mean greater potency, high ones weaker potency. In general, Kd refers to the equilibrium constant for the complex coming apart. A low value points to tighter binding.

T2 sequence (P40199 other isoform, or with tags, fused parts or gaps limits assumed): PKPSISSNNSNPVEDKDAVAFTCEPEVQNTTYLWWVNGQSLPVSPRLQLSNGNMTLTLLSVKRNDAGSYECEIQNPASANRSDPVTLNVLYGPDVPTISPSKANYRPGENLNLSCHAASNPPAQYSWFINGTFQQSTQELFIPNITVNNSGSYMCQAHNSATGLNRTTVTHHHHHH

B1: Antibody 8 (antibody, V domains shown)
VH: EVQLRQSGPELVRPGASMKISCKASGYSFTAYTMTWVKQSHGKILEWIGLIAPYHGGTVYNQKFKGKATLTVDKSSSTAYMELLSLTSEDSAIYYCAGGASSGFVTWFAYWGQGTLVTVSA
VL: DIQMTQSPASLSASVGETVTITCGASENIYGALNWYQRKQGKSPQVLIYGATNLADGTSSRFSGSGSGRQYSLKINSLHPDDVATYYCQNVLSTPYTFGGGTKLEIK
notes: Mouse-derived hybridoma antibody; also called mouse-derived antibody 8
For the molecule B1, the concentration for a half-maximal effect (EC50 (read off the curve)) is approximately 0.01 µg/mL in experiment [1], approximately 0.02 µg/mL in the experiment with Human-CEACAM6 (AB)-His [2], approximately 2 nM in experiment [3] and approximately 2 nM in experiment [4].

B2: Antibody 15 (antibody, V domains shown)
VH: QVQLQQPGAELVKPGASVTLSCKASGYTFTSYWINWVKQRPGQGLEWIGNIYPYTSSSNYNEKFKGKATLTVDTSSNTAYMQLSGLTSDDSAVYFCARKGNIYYSYESYPLDFWGQGTSVTVSS
VL: DIQMTQSSSSFSVSLGDRVTITCKASEDIYKQIGWYQQKPGNAPRLLIAGATSLETGVPSRFSGSGSGKDYMLNITSLQTEDVGSYYCQQYWSPPFTFGSGTKLEIK
notes: Mouse-derived hybridoma antibody; also called mouse-derived antibody 15
On to B2, for which the Kd was less than 0.001 nM with Human-CEACAM6 (AB)-His [5], 7.64 nM in experiment [6] and 3.83 nM in experiment [7].

B3: Antibody B (antibody, human IgG1, kappa, V domains shown)
VH: EVQLVESGGGLVQPGGSLRLSCAASEFTLIDYYMSWVRQAPGKGLEWVGYIRNKVNGHTTDYIASVKGRFTISRDDSKNSLYLQMNSLKTEDTAVYYCARDPGINWYFDVWGQGTLVTVSS
VL: EIVLTQSPATLSLSPGERATLSCRASSRVTYMHWYQQKPGQSPRPLISATSNLASGIPARFSGSGSGTDYTLTISSLEPEDFAVYYCQQWSYNPPTFGGGTKLELKR
notes: Humanized form of mouse-derived antibody 2 on a human IgG framework; also called humanized antibody B
As for B3, the Kd with Human-CEACAM6 (AB)-His [5] was 117 nM; in experiment [6], less than 0.001 nM; in experiment [7], 19.7 nM.

Values taken from patent US20250250335A1 (SHENGHE CHINA BIOPHARMACEUTICAL, published 2025).
